# Publication PMC9705314, “Characterization of a new potent and long-lasting single chain peptide agonist of RXFP1 in cells and in vivo translational models” (Scientific Reports, 2022)
# Columns and labels:
# [1] = target: rat RXFP1 (rat) (UniProt Q6R6I6)
# [2] = target: human RXFP1 (human) (UniProt Q9HBX9)
# Chain of human RXFP1 (human) (Q9HBX9 whole entry): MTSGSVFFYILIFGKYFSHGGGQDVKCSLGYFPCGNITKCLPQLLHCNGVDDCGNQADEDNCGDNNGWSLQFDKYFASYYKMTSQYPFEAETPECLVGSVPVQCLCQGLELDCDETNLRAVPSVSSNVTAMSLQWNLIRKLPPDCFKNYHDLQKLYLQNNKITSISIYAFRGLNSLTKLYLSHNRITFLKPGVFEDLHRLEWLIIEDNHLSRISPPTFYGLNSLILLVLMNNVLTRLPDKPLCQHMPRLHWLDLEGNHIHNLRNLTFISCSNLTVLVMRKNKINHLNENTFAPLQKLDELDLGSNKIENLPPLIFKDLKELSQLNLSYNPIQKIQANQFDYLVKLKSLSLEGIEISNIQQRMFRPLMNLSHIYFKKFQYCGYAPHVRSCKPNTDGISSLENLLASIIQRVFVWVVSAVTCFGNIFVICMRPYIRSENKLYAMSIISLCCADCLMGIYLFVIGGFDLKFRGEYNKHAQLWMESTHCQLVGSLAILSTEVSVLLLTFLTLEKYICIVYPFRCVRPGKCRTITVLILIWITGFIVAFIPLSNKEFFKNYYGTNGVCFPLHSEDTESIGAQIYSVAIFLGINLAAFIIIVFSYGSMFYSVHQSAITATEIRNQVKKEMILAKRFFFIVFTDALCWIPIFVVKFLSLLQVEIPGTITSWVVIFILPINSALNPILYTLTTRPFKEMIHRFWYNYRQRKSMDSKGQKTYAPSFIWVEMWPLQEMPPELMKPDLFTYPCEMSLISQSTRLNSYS
# Chain of rat RXFP1 (rat) (Q6R6I6 whole entry): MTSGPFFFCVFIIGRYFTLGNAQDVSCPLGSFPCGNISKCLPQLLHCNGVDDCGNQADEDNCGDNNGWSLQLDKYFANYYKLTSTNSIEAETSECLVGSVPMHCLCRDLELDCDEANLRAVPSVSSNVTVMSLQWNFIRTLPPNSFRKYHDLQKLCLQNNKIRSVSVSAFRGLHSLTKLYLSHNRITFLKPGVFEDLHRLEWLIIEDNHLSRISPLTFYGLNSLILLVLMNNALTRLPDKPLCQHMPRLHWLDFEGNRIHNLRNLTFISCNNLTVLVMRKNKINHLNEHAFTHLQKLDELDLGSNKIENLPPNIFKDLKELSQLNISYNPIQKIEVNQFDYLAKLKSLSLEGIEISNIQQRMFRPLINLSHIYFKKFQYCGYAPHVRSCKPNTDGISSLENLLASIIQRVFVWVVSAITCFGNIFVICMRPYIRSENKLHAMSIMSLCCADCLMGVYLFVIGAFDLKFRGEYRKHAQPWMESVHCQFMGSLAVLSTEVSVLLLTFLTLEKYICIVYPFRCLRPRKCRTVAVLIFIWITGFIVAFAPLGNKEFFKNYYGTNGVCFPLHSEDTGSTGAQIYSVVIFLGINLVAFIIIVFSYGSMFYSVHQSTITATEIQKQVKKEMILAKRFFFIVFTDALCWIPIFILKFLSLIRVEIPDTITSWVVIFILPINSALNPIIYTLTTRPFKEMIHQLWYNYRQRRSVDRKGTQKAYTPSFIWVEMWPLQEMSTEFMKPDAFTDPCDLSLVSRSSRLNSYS
substance,measurement,setting,value
Human recombinant relaxin (B-29/A-24) (ligand),"cAMP (HTRF) in HEK ratRXFP1 cells, EC50",[1],1.4 nM
same,"cAMP (HTRF) in HEK ratRXFP1 cells, Emax (% of the 100 nM relaxin response)",[1],95.6%
same,"cAMP (HTRF) in EA.hy926 hRXFP1 cells, EC50",[2],0.06 nM
same,"cAMP (HTRF) in EA.hy926 hRXFP1 cells, Emax (% of the 100 nM relaxin response)",[2],100%
same,"cAMP (HTRF) in OVCAR5 cells with endogenous human RXFP1, EC50",[2],1.8 nM
same,"cAMP (HTRF) in OVCAR5 cells with endogenous human RXFP1, Emax (% of the 100 nM relaxin response)",[2],96.2%
